According to the supplement of paper PMC10567573:

B1: TRIM35 (parent)
chain: DKELLCCSCQADPRHQGHRVQPVK

Variants of: B1
Assay: protein stability index of a GFP-peptide fusion (GPS, HEK-293T) (PSI 1-6); higher = more stable
Conditions: c terminus: a fixed tail appended
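Note: lentivirally expressed fusions sorted by FACS into six bins by GFP to DsRed ratio, PSI derived from sequencing read proportions per bin multiplied by bin number.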

Protein stability index of substitutions, site by site:
A11: Q 3.41, D 4.08, T 4.25, S 3.67, L 3.46, H 3.29, M 2.76, C 3.23, E 3.26, G 3.95, R 3.85, N 4.24, V 3.13, W 2.84, K 4.3, F 4.14, Y 2.93, I 3.52, P 3.87
P13: C 4.78, T 3.34, Q 3.88, M 2.71, D 3.44, G 3, W 2.31, R 3.41, N 3.79, L 3.76, Y 2.79, V 2.8, H 3.64, I 3.69, F 2.31, E 3.44, S 1.97, A 3.04, K 3.15
H15: E 3.56, V 2.95, G 3.15, N 3.33, A 3.48, T 3.57, W 3.33, Q 3.02, C 4.26, M 2.96, I 2.99, L 3.52, K 3.44, F 3.62, D 4.23, S 3.78, Y 3, P 3.54
H18: P 2.6, M 3.97, G 4.1, D 3.91, A 3.89, N 3.98, C 2.75, K 4.16, I 3.9, L 3.65, R 3.6, S 4.38, Q 3.29
C9: T 4.28, Y 4.52, V 3.27
Q16: M 2.66, C 4.54, R 3.34, T 3.23, N 3.33, H 3.58, E 3.87, G 3.82, W 2.67, I 3.82, K 3.96, V 2.88, D 3.98, S 3.72, Y 2.57, A 3.52, F 2.32, L 3.43, P 3.66
Q10: T 4.04, K 3.8, G 2.6, A 3.41, R 3.68, L 2.85, D 4.1, F 3.01, I 3.87, E 4.44, W 2.53, Y 3.49, M 3.27, N 4.07, H 3.79, C 3.38, V 3.29, P 3.91, S 2.89
R14: A 4.06, Y 3.35, N 4.13, S 3.58, I 4.18, V 2.95, D 4.05, Q 3.75, H 3.69, F 3.35, C 4.24, L 3.43, T 3.52, M 3.97, W 2.46, G 3.03, P 4.18, K 3.37, E 3.85
G17: D 3.88, N 3.82, M 2.88, C 4.33, F 3.49, W 2.67, Q 3.59, V 3.08, L 3.35, K 3.99, A 3.19, Y 3.37, T 3.78, S 3.66, R 3.84, H 3.95, E 4.17, I 3.48, P 3.12
D12: W 3.48, K 3.81, N 3.12, I 2.45, H 2.89, G 3.13, A 3.52, T 3.01, P 2.78, F 2.73, R 3.21, E 3.78, L 2.53, C 4.09, Y 2.75, S 3.06, V 3.21, Q 3.4, M 2.72
